Measurements published in the supplement of paper PMC10567573.
± gives the standard deviation.

Assay: protein stability index of a GFP-peptide fusion (GPS, HEK-293T) (PSI 1-6); higher = more stable
Settings: c terminus: a fixed tail appended
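Further: 24-mer peptide tiles fused after GFP, lentivirally expressed, FACS-sorted into six equal bins by GFP/DsRed ratio, decoded by Illumina sequencing, PSI is the read-weighted mean bin number.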

QLELVILQSEPHRAGVQWKFAGSF [KCNK9] gave a protein stability index (treatment: DMSO) of 2.7 ± 0.54 and a protein stability index (treatment: MLN4924 1 uM, 8 h) of 2.59 ± 0.44.

In the case of LEVSQLEGSLQQPKAQSAMSPYLV [SMG5], the protein stability index (treatment: DMSO) is reported as 3.37 ± 0.21 and the protein stability index (treatment: MLN4924 1 uM, 8 h) is reported as 3.46 ± 0.21.

For QYQLLRCNVDLLKIIQLGLTFMNE [CNOT7], the protein stability index (treatment: DMSO) was 2.73 ± 1.8 and the protein stability index (treatment: MLN4924 1 uM, 8 h) was 2.86 ± 0.42.

ARNGNAEEVRQLLETMARNEVIAD [OSBPL1A] gave a protein stability index (treatment: DMSO) of 4.11 ± 0.061 and a protein stability index (treatment: MLN4924 1 uM, 8 h) of 4.07 ± 0.32.

In the case of QHRKINPKNREYDRFYVINYLVRL [ZNF277], the protein stability index (treatment: DMSO) is reported as 3.16 ± 1.1 and the protein stability index (treatment: MLN4924 1 uM, 8 h) is reported as 2.29 ± 0.64.

Work on FSQEIGLASLGASEEAVQKLATCY [TPH1] yielded a protein stability index (treatment: DMSO) of 3.12 ± 0.18 and a protein stability index (treatment: MLN4924 1 uM, 8 h) of 3.34 ± 0.3.

Work on NGSISSAGNSSRNSSQSSSDGSCK [BTBD10] yielded a protein stability index (treatment: DMSO) of 5.01 ± 0.23 and a protein stability index (treatment: MLN4924 1 uM, 8 h) of 5.2 ± 0.16.

AREGAGLVVASGVIYCLGGYDGLN [KLHL12] showed a protein stability index (treatment: DMSO) of 2.81 ± 0.59 and a protein stability index (treatment: MLN4924 1 uM, 8 h) of 2.39 ± 0.51.

For TRRVTFEADENENITVVKGIRLSE [CHCHD3], the protein stability index (treatment: DMSO) was 4.29 ± 0.13 and the protein stability index (treatment: MLN4924 1 uM, 8 h) was 4.47 ± 0.23.

Work on EGVPSVFNPPPSRPLQVNTADHRI [FAF2] yielded a protein stability index (treatment: DMSO) of 4.421 ± 0.042 and a protein stability index (treatment: MLN4924 1 uM, 8 h) of 4.503 ± 0.037.

Work on STLVEVTLGEVPAAESPDPPQSPQ [MAGEA3] yielded a protein stability index (treatment: DMSO) of 5.39 ± 0.14 and a protein stability index (treatment: MLN4924 1 uM, 8 h) of 5.27 ± 0.17.

With IVRRRSRDVPESPQHAADTPKSGE [YJU2B] the protein stability index (treatment: DMSO) was 5.06 ± 0.25 and the protein stability index (treatment: MLN4924 1 uM, 8 h) was 5.21 ± 0.22.

For FKDKSTYIESSTKVYDDMAFRYLS [CLPTM1], the protein stability index (treatment: DMSO) was 2.65 ± 0.33 and the protein stability index (treatment: MLN4924 1 uM, 8 h) was 2.57 ± 0.32.

For LEVAMEEEGLADEEKKLRRSQHAR [STK38L], the protein stability index (treatment: DMSO) was 5.43 ± 0.3 and the protein stability index (treatment: MLN4924 1 uM, 8 h) was 5.27 ± 0.35.

YLAFAASNVRGSLNVNLNSVVLRR [DUSP5] showed a protein stability index (treatment: DMSO) of 2.41 ± 0.24 and a protein stability index (treatment: MLN4924 1 uM, 8 h) of 2.69 ± 0.24.

Sequence SLNALEDQDLDALMADLVADISEA [APBB1IP] has a protein stability index (treatment: DMSO) of 4.58 ± 0.15 and a protein stability index (treatment: MLN4924 1 uM, 8 h) of 4.36 ± 0.23.

Work on ITNQEELWKMKPRRNLEEDDYLHK [STEAP1] yielded a protein stability index (treatment: DMSO) of 4.22 ± 0.41 and a protein stability index (treatment: MLN4924 1 uM, 8 h) of 4.02 ± 0.26.

In the case of LYGFLLTFGFITMTPQLFINYKLK [CLPTM1], the protein stability index (treatment: DMSO) is reported as 3.12 ± 0.64 and the protein stability index (treatment: MLN4924 1 uM, 8 h) is reported as 3.44 ± 0.32.

RGPDNALLEATGGAAGRSHHLDED [KCTD10] gave a protein stability index (treatment: DMSO) of 5.54 ± 0.26 and a protein stability index (treatment: MLN4924 1 uM, 8 h) of 5.42 ± 0.25.

In the case of LRGLPGERGTPGLPGPKGDDGKLG [SCARA5], the protein stability index (treatment: DMSO) is reported as 4.96 ± 0.33 and the protein stability index (treatment: MLN4924 1 uM, 8 h) is reported as 4.96 ± 0.19.

Work on LWRYRTITFSGRPSRVHASEVESA [FBXO39] yielded a protein stability index (treatment: DMSO) of 2.79 ± 0.27 and a protein stability index (treatment: MLN4924 1 uM, 8 h) of 3 ± 0.33.

For PILKRLERPQDRDTPVQNKRRRSV [CDC25B], the protein stability index (treatment: DMSO) was 5.03 ± 0.49 and the protein stability index (treatment: MLN4924 1 uM, 8 h) was 5.11 ± 0.16.

For TLNILLYEAQDGRGPDNALLEATG [KCTD10], the protein stability index (treatment: DMSO) was 2.92 ± 0.21 and the protein stability index (treatment: MLN4924 1 uM, 8 h) was 3.29 ± 0.31.

SGAAASLNVDAAVQQWLQKGTPAS [CHIT1] showed a protein stability index (treatment: DMSO) of 4.12 ± 0.33 and a protein stability index (treatment: MLN4924 1 uM, 8 h) of 4.01 ± 0.35.

In the case of GVCQSMCHDKYTKIFNDFKDRMKS [ZMYND11], the protein stability index (treatment: DMSO) is reported as 3.11 ± 0.032 and the protein stability index (treatment: MLN4924 1 uM, 8 h) is reported as 2.92 ± 0.23.

In the case of ITAPTEVEVMDETNCQKVLNMWCC [CSNK1G3], the protein stability index (treatment: DMSO) is reported as 2.84 ± 0.29 and the protein stability index (treatment: MLN4924 1 uM, 8 h) is reported as 2.98 ± 0.29.

Sequence PELLVGDTQYGSSVDIWAIGCVFA [CDKL4] has a protein stability index (treatment: DMSO) of 2.14 ± 0.57 and a protein stability index (treatment: MLN4924 1 uM, 8 h) of 2.73 ± 0.98.

With KLLKSMPILQGQIDALLEFDVHPN [SNAP91] the protein stability index (treatment: DMSO) was 2.12 ± 0.21 and the protein stability index (treatment: MLN4924 1 uM, 8 h) was 2.33 ± 0.17.

Work on VAEITKQLPPVVPVSKPGALRRSL [TCAP] yielded a protein stability index (treatment: DMSO) of 5.15 ± 0.15 and a protein stability index (treatment: MLN4924 1 uM, 8 h) of 5.2 ± 0.29.

With RLQQELEQQRCLLLARLRELEQQI [TRIM15] the protein stability index (treatment: DMSO) was 3.68 ± 0.2 and the protein stability index (treatment: MLN4924 1 uM, 8 h) was 3.69 ± 0.39.

Work on TLIMLLSLAAFSVISVVSYLILAL [RTN3] yielded a protein stability index (treatment: DMSO) of 2.58 ± 0.36 and a protein stability index (treatment: MLN4924 1 uM, 8 h) of 2.12 ± 0.11.

With WVLLFTPCSFVCWYRPMYKAFRSD [SCAMP3] the protein stability index (treatment: DMSO) was 2.92 ± 0.31 and the protein stability index (treatment: MLN4924 1 uM, 8 h) was 3 ± 0.37.

VLEGPAPWGFRLQGGKDFNVPLSI [PDLIM7] showed a protein stability index (treatment: DMSO) of 2.31 ± 0.12 and a protein stability index (treatment: MLN4924 1 uM, 8 h) of 2.44 ± 0.17.

Sequence YDDVRRCCSSADICPKCWTLMTMA [PRIM1] has a protein stability index (treatment: DMSO) of 3.34 ± 0.17 and a protein stability index (treatment: MLN4924 1 uM, 8 h) of 3.4 ± 0.36.

SVRILGSLVAILLVFLITAILVKV [SLC29A1] showed a protein stability index (treatment: DMSO) of 2.9 ± 0.44 and a protein stability index (treatment: MLN4924 1 uM, 8 h) of 2.85 ± 0.66.

Work on MGVVSLVFLIIYYLDPSVLSGVSC [ARL6IP1] yielded a protein stability index (treatment: DMSO) of 3.18 ± 0.51 and a protein stability index (treatment: MLN4924 1 uM, 8 h) of 3.13 ± 0.33.
